This assay concerns the target fusin/CXCR4 receptor (human) (UniProt P61073).

In patent US6730296B1 one finds anti-fusin antibody staining of Jurkat cells after 3-hour incubation data, which are given here for 1 substance.

As to “purified human SDF-1β chemokine, prepared in E. coli and containing an N-terminal methionine residue (from UniProt P48061) (ligand)”, the anti-fusin antibody staining of Jurkat cells after 3-hour incubation at 37 degrees C, Median Channel (Median Channel) is 22.3.
